US6998383B2, “Inhibitors of receptor activator of NF-κB and uses thereof” (Research Development Corporation, priority 2001, dated 2006)

How the values were obtained:
[1] = biological target: T1, TRAF5 binding to the cytoplasmic domain of RANK (Mus musculus, UniProt P70191); test: Competitive GST-pull down assay, TRAF5 binding to RANK cytoplasmic domain; settings: 100 μM peptide, FLAG-TRAF5 293 cell extract (FIG. 4C)
T1 construct: expressed in transfected cells; host or cells: human 293 cells (TRAF lysate); The GST-RANK fusion was purified as previously described
T1 sequence (P70191 whole entry, the tested form may be a part): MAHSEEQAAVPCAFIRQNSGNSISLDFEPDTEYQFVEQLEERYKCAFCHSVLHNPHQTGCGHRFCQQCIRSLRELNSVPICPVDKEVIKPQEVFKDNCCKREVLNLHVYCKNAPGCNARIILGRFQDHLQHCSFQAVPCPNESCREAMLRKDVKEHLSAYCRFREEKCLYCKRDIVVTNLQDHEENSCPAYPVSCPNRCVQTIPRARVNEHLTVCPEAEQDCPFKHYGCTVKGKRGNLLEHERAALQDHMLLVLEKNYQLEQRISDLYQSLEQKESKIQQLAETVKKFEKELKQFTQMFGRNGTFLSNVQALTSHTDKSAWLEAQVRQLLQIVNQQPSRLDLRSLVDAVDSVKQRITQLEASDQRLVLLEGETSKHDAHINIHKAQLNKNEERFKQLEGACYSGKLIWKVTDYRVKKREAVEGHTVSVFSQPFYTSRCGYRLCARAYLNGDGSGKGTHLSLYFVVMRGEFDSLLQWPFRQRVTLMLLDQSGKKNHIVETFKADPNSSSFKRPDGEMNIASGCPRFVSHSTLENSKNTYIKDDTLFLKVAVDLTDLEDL
Protocol: (§1) Cellular extracts from human 293 cells transfected with either FLAG-TRAF2, -TRAF5, or -TRAF6 were mixed with GST or GST-RANKed in the absence or presence of 100 μM of the indicated peptides. A GST-pull down assay was performed as described below. The bound TRAFs were visualized by immunoblotting with anti-FLAG antibodies.
(§2) Equivalent amounts of GST or GST-RANK cytoplasmic domain (GST-RANKed) fusion protein attached to 20 μl of glutathione agarose beads were mixed with lysates (50 μg) from 293 cells programmed to express the epitope-tagged TRAF protein and the indicated peptides in binding buffer (20 mM TRIS, pH 8, 150 mM NaCl, 1 mM DTT, 2 mM EDTA, and 0.1% NP-40) and allowed to rotate for 1 h at 4° C. The beads were collected by centrifugation, washed three times in binding buffer, and then washed once in low-salt buffer (20 mM TRIS, pH 8, 50 mM NaCl, and 1 mM DTT). Bound proteins were eluted with addition of SDS-sample buffer and boiled. The eluted proteins were subjected to 7.5% SDS-PAGE and western blot analysis was performed with anti-FLAG antibodies.
(§3) The cytoplasmic domain of RANK interacts with many TRAF molecules, including TRAF1, 2, 3, 5, and 6 (7-9, 11, 12). While TRAF1, 2, 3, and 5 interact with the c-terminal tail of receptor activator of NF-κB, TRAF6 interacts with a membrane proximal region of the cytoplasmic domain of the receptor activator of NF-κB. […]

[2] = biological target: T2, TRAF2 binding to the cytoplasmic domain of RANK (Homo sapiens, UniProt Q12933); test: Competitive GST-pull down assay, TRAF2 binding to RANK cytoplasmic domain; settings: 100 μM peptide, FLAG-TRAF2 293 cell extract (FIG. 4C)
T2 construct: expressed in transfected cells; host or cells: human 293 cells (TRAF lysate); The GST-RANK fusion was purified as previously described
T2 sequence (Q12933 1-501): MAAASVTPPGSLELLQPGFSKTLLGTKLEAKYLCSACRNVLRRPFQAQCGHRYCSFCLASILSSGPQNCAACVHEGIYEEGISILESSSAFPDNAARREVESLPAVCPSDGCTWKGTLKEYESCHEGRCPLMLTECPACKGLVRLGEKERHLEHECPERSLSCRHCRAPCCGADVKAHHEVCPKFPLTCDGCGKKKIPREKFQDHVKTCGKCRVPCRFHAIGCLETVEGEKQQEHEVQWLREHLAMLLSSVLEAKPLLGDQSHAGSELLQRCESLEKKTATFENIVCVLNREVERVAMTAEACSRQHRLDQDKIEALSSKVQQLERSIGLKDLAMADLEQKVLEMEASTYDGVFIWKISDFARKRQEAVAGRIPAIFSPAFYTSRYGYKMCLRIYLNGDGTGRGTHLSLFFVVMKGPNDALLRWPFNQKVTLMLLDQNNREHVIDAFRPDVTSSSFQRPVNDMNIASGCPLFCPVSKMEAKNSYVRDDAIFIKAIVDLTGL
Protocol: as §1, §2, §3

[3] = tested on: bone marrow-derived mouse monocytes; test: RANKL and M-CSF-mediated osteoclast differentiation in bone marrow-derived mouse monocytes (TRAP staining); assay type: cell-based; settings: M-CSF 10 ng/ml and RANKL 30 ng/ml (FIGS. 3A, 3B)
Protocol: After 6-7 days, the cells were fixed and stained for TRAP. The numbers of multi-nucleated, TRAP positive osteoclasts were counted.
Mouse-derived monocytes were plated in 48-well plates and costimulated as in FIG. 3A with murine M-CSF (10 ng/ml) and RANKL (30 ng/ml) in the absence (left panel) or presence of the indicated peptides. After 6-7 days, the cells were fixed and stained for TRAP. A representative field from each well was taken at a magnification of 10×.
(§4) Primary bone marrow monocytes (BM) or RAW264.7 cells were cultured in 48-well dishes at a density of 1×10^5 cells/well or 2×10^3 cells/well, and then treated with the indicated factors at the beginning of the culture and during a medium change on day 3. Osteoclast formation was assessed by counting the total number of multi-nucleated (>3 nuclei), TRAP-positive cells present per well between day 7 and 10 (BM) or on day 5 (RAW264.7) (30).
To further support the results obtained from the RAW264.7 cell line, the ability of these peptides to inhibit RANKL-mediated osteoclast differentiation in primary mouse-derived monocytes was tested. Costimulation of bone marrow-derived monocytes with RANKL and M-CSF cause osteoclast differentiation after 7-10 days, as determined by staining multi-nucleated, TRAP positive osteoclasts (30). Similar to the results with RAW264.7 cells, both L-T6DP-1 and L-T6DP-2 inhibited the development of TRAP positive osteoclast in a dose-dependent manner and L-T6DP-1 was much more efficient (FIGS. 3A and 3B).

[4] = biological target: T3, TRAF6 binding to the RANK cytoplasmic domain (Mus musculus, UniProt P70196); test: Competitive GST-pull down assay, TRAF6 binding to RANK cytoplasmic domain; settings: 100 μM peptide, FLAG-TRAF6 293 cell extract, GST-RANK cytoplasmic domain (FIG. 4C)
T3 construct: expressed in transfected cells; host or cells: human 293 cells (TRAF lysate); The GST-RANK fusion was purified as previously described
T3 sequence (P70196 1-530): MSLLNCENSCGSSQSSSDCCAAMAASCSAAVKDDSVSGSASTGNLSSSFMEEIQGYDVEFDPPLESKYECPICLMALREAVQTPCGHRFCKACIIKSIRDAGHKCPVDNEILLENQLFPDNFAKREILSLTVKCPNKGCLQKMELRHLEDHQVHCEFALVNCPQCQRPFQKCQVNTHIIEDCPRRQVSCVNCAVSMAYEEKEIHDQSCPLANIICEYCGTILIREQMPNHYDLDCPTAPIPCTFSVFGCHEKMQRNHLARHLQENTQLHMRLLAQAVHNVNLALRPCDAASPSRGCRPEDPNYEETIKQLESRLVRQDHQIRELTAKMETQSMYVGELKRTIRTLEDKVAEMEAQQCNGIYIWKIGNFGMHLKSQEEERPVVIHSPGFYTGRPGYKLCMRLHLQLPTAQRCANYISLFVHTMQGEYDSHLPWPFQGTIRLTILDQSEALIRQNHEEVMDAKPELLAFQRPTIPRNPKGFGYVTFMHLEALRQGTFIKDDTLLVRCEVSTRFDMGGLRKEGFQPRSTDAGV
Protocol: as §1, §2, §3

RAW264.7 cells = test: RANKL-mediated osteoclast differentiation in RAW264.7 cells (TRAP staining); assay type: cell-based, mouse; settings: RANKL, increasing amounts of peptide, 4-5 days (FIG. 2C)
Protocol: RAW264.7 cells were plated in 12-well plates and stimulated with RANKL (30 ng/ml) for 4 days. Cells were stained for TRAP essentially as described below. Photographs were taken using a 10× objective lens.
RAW cells were plated as described in FIG. 2A and treated with RANKL in the presence of 1, 30, or 100 μM of peptides as indicated. On day 4 cells were stained and evaluated as in FIG. 2A.
RAW264.7 cells were plated in 48-well plates in triplicate and treated with RANKL in the presence of increasing amounts of the indicated peptides. After 4-5 days, the cells were stained for TRAP and the total numbers of osteoclasts were counted as described below.
as §4
The mouse macrophage cell line RAW264.7 express the receptor activator of NF-κB on their cell surface and when stimulated with the receptor activator of NF-κB ligand differentiate into multi-nucleated, tartrate resistant acid phosphatase (TRAP) positive osteoclasts after 4-5 days (FIG. 2A). To determine whether L-T6DP-1 could inhibit RANKL-mediated osteoclast differentiation, RAW264.7 cells were co-cultured with increasing concentrations of either L-T6DP-1. or T6DP-1 and 30 ng/ml RANKL for 4 days.

Which “TRAF5 binding to the cytoplasmic domain of RANK” value [1] does the source give for “L-T6DP-2: Kaposi fibroblast growth factor signal sequence hydrophobic domain attached to murine RANK peptide containing a similar TRAF6-binding motif (AAVALLPAVLLALLAPFQEPLEVGE)” here?
The value was “neither L-T6DP-1 nor L-T6DP-2 inhibited”.

And the “TRAF2 binding to the cytoplasmic domain of RANK” value [2]?
Its value is “neither L-T6DP-1 nor L-T6DP-2 inhibited”.

What about the “development of TRAP positive osteoclasts” value [3] of the same substance?
Its value is “inhibited”.

What about the “TRAF6 interaction with the cytoplasmic domain of RANK” value [4] of the same substance?
The value was “Only L-T6DP-1 inhibited”.

What about the “number of TRAP positive osteoclasts” value (RAW264.7 cells) of the same substance?
The value was “dose-dependent decrease”.
